Laboratory results: patent KR20150063728A (dated 2015)

Assays:
[1] = molecular target: T1, FLAG-Tagging 된 hVEGF-C (Accession # P49767) (human, UniProt P49767 103-227, limits assumed); assay: competitive ELISA: scFv inhibits FLAG-hVEGF-C binding to coated hVEGR-R3-Fc
T1 construct: also called FLAG-Tagging 된 VEGF-C; not shown: FLAG tag
T1 sequence (looked up): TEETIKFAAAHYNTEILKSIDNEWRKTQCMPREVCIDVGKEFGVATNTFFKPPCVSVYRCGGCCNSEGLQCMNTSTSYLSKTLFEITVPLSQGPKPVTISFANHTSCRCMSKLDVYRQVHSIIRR

[2] = molecular target: T2, 인간 VEGF-C 폴리펩타이드 (Human VEGF-C; R&D systems; Accession # P49767) (human, UniProt P49767 103-227); assay: ELISA, coated human VEGF-C, scFv detected with anti-HA-HRP; 50% binding concentration (Kd)
T2 construct: Bought; also called hVEGF-C
T2 sequence (looked up): T1 sequence (looked up)

IC50 [1]: 33.4 nM | Kd [2]: 26.2 nM
B1: SAIT-VEGFC-AB-4A2 (scFv 형태의 항-VEGF-C 항체) (scFv, V domains shown)
VH: EVQLLESGGGLVQPGGSLRLSCAASGFTFSSYDMSWVRQAPGKGLEWVSAISYDNGSTYYADSVKGRFTISRDNSKNTLYLQMNSLRAEDTAVYYCARDPYLARLNTFDYWGQGTLVTVSS
VL: QSVLTQPPSASGTPGQRVTISCSGSSSNIGSNNVSWYQQLPGTAPKLLIYYNSHRPSGVPDRFSGSKSGTSASLAISGLRSEDEADYYCATWDSSLNGYVFGGGTKLT
notes: Tested as library scFv (Ni-NTA purified, anti-HA detection)
